This note sets out measurements from the RNAGym collection of RNA variant scans (doi:10.1073/pnas.2313332121).

B1: TPR t1 (parent)
chain: GACCAAUCUGCCCUCAGAGCUCGAGAACAUCUUCGGAUGCAGAGGAGGCAGGCUUCGGUGGCGCGAUAGCGCCAACGUCCUCAACCUCCAAUGCAUCCCACCACAUGAUGAUGCCUGAAGAGCCUUGGUUUUUUG

In this data set the parent is B1. The data set is described as follows: polymerase ribozyme fitness, log enrichment relative to wild type (log ratio); higher = more active; in vitro selection for triplet polymerase activity. The gist of the method: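 Mutant libraries were PCR-built and transcribed for each subunit of a heterodimeric triplet polymerase ribozyme and selected for one round in triplicate at −7 °C, frozen, before gel excision of extended constructs and streptavidin-bead capture. Input and output libraries were Illumina-sequenced, keeping genotypes with ≥10 input reads and ≥1 read per output. Fitness is a logarithmic ratio of genotype to wild-type enrichment, in base 2, using inverse-variance-weighted replicate averages.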
G52A C102A: the “polymerase ribozyme fitness (log ratio)” value was -1.79.
With C49G C99A G120C G122U, the “polymerase ribozyme fitness (log ratio)” value is -6.79.
With G117A U129C the figure was -2.05.
With G47A U106A U133A the figure was -1.13.
Consider C28U G42U C49G G69U U126G U130A, for which the “polymerase ribozyme fitness (log ratio)” value is -6.32.
In the case of G61U C79U it was 0.149; in that of A90U C97U U125A G127C U130G, -3.85; in that of C15U A37G C70U A100U A121C C123U, -1.4.
On to U7G G42C G45A G61C, for which the “polymerase ribozyme fitness (log ratio)” value was -3.42.
On to A6C U21G G39U C72G C85A C124U G128A U133A, for which the “polymerase ribozyme fitness (log ratio)” value was -3.4.
With U54G U87A the figure was -0.0841; with U21A G61C U112A U133C, -0.24.
As for A2C C4G C114A, the “polymerase ribozyme fitness (log ratio)” value is -3.53.
On to A5U A46U C73A A90U C123A, for which the “polymerase ribozyme fitness (log ratio)” value is -1.41.
Take G60C U112G C124A: the “polymerase ribozyme fitness (log ratio)” value is -0.118.
With C4A C64U the figure was -1.24; with C12U U116A, -1.04.
With G35A G69C C115U the figure was -6.53; with G47C G60C U109A U112G, -7.01; with C89U U129G, -1.72.
For C11G U21A, the “polymerase ribozyme fitness (log ratio)” value was -0.298.
As for U112A C115G, the “polymerase ribozyme fitness (log ratio)” value is -0.927.
With C4G A50U the figure was -3.4.
In the case of C11U A43G G63A it was -5.66.
Take G25A U106A: the “polymerase ribozyme fitness (log ratio)” value is -4.81.
In the case of C15U A74C A75G C115A it was -3.69; in that of U32C G39U C56U G58C, -0.298; in that of G10A C13U C15U C79A A100U C124G U131G, -0.0361.
C22G U55G G60U C62G U78C: the “polymerase ribozyme fitness (log ratio)” value is -5.09.
In the case of C12G U30G C72G C101A U106A A119U C123U, the “polymerase ribozyme fitness (log ratio)” value was -5.26.
In the case of G63A C79G U109G it was -7.2; in that of A41G C53U, -0.653; in that of U81G U87C, -2.82.
With C11G G36C G44C U78A U87G the figure was -1.77; with G23A C28G G69U U78G C79U U112C G128U U133G, -5.41; with G35A U132A, -3.49.
With U78A G113C U130C the figure was -3.05.
In the case of G52U G120U, the “polymerase ribozyme fitness (log ratio)” value was -0.714.
As to C79U G107A, the “polymerase ribozyme fitness (log ratio)” value was -4.41.
With C13A C72U U92C U133A, the “polymerase ribozyme fitness (log ratio)” value was -3.18.
C11U C62A: the “polymerase ribozyme fitness (log ratio)” value is -1.39.
With C31U A68U C114A G117C C124A the figure was -5.73; with C11G C40U C49U U55G U130A U132A, -1.35; with C4G C13U C31G C34G G63A C79U G113U, -7.83.
Take U33G U87G: the “polymerase ribozyme fitness (log ratio)” value was -5.18.
With C8U A43U G58A C79U G113C A118G the figure was -3.06.
Consider C72U U96A A118G, for which the “polymerase ribozyme fitness (log ratio)” value was -1.7.
With U54A C62A the figure was -0.751; with A95G G135U, -0.746; with C124A G128A, -0.565.
With G48A C97A the figure was -5.22; with A26U G61U U87G C98G A121U, -6.57; with A2U U54C U112G G113A U133A, -2.96.
In the case of G42U C53G G69U it was -0.375; in that of C53G C97A A119U C123U, -4.34.
In the case of A5C U87C C88A G120U, the “polymerase ribozyme fitness (log ratio)” value is -0.6.
With A50C C56A A66G the figure was -2.8; with C40G U112C, 0.984; with C11G U54C C62A A95C G128C, -3.23.
Regarding C8U C11G C13U C20A G69C C82A A83C C98U U112G, the “polymerase ribozyme fitness (log ratio)” value was -4.19.
In the case of C12G U32G it was -6.87; in that of G35U C79U C114U U131C U134G, -5.19.
In the case of C11U U21C C82G it was -0.576.
With A2G C8G U96A G135U, the “polymerase ribozyme fitness (log ratio)” value was -1.73.
In the case of U9G G65C A121U, the “polymerase ribozyme fitness (log ratio)” value was -4.76.
Consider C3U C40U, for which the “polymerase ribozyme fitness (log ratio)” value is -1.92.
For the variant C72G C88U C123A, the “polymerase ribozyme fitness (log ratio)” value came out at 0.243.
With G61A A74C G128C the figure was -5.31; with G47A G48A C53G G69U U132A, -0.097.
For the variant G23C C85G C97A G120C, the “polymerase ribozyme fitness (log ratio)” value was -7.88.
In the case of G19C G110C C114U it was -5.66.
With A46U C56G U78G C85U the figure was -1.84; with U96A G113A, -1.86; with A66C C85U C86U C97U, -3.15.
With C97G U112A the figure was -3.48.
In the case of G60A U109A, the “polymerase ribozyme fitness (log ratio)” value was -5.33.
In the case of C79U G117A U125G it was -1.82.
With G39U C102A, the “polymerase ribozyme fitness (log ratio)” value was -3.45.
As to A111C U129G, the “polymerase ribozyme fitness (log ratio)” value was -0.988.
For C49A G110C U112A, the “polymerase ribozyme fitness (log ratio)” value is -5.99.
With A46G G107A the figure was -4.88.
With A6G C102A C124A U130A the figure was 0.13; with A43U G113C, -3.56.
